In one assay the test system is Colo205 xenograft. As to the kind of experiment: In vivo efficacy of Trop-2 ADCs, colorectal tumor Colo205 xenograft model. To be noted: single dose of 6 mg/kg, tail vein; FIG. 10. On the set-up: species or system nu/nu mice. As to the method:
In vivo efficacy study of Trop-2 ADCs was performed with target-expressing colo205 xenograft model. Three millions of colo205 colon cancer cells were implanted subcutaneously into 5-8 weeks old nu/nu mice until the tumor sizes reached ˜300 mm^3. […] Tumor volume is measured once a week by a Caliper device and calculated with the following formula: Tumor volume=(length×width^2)/2. Studies were terminated before their tumor volumes reached 2000 mm^3.

The subject of assay [1] is SW620 cells (Trop-2 non-expressing). As to the kind of experiment: Cytotoxicity of ADCs (CellTiter-Glo), SW620. Type of assay: cell-based. The settings on record: Table 13; SW620, Trop2 expression −; 96 hours; concentration of total Ab. How it is done: Target expressing (A431, BxPC3, CAPAN-2 and Colo205) or non-expressing (SW620) cells were seeded on white walled clear bottom plates at 2000 cells/well for 24 hours before treatment. Cells were treated with 4 fold serially diluted antibody-drug conjugates in triplicates. Cell viability was determined by CellTiter-Glo® Luminescent Cell Viability Assay 96 (Promega, Madison Wis.) 96 hours after treatment. Relative cell viability was determined as percentage of untreated control. IC50 was calculated by Prism software.
2-methylalanyl-N-[(3R,4S,5S)-3-methoxy-1-{(2S)-2-[(1R,2R)-1-methoxy-2-methyl-3-oxo-3-{[(1S)-2-phenyl-1-(1,3-thiazol-2-yl)ethyl]amino}propyl]pyrrolidin-1-yl}-5-methyl-1-oxoheptan-4-yl]-N-methyl-L-valinamide is a novel auristatin, as described in U.S. Application Nos. 61/561,255 and 61/676,423. Method of conjugating Trop-2 antibodies using transglutaminase tags is described in Example 9. Target expressing or non-expressing (SW620) cells were seeded on white walled clear bottom plates at 2000 (A431, BxPC3, NCI-H292, NCI-H1650, MDA-MB-468 and SW620), 2500 (Calu-3) or 3000 (OVCAR3 and SKBR3) cells per well for 24 hours before treatment. Cells were treated with 4 fold serially diluted antibody-drug conjugates in triplicates. Cell viability was determined by CellTiter-Glo® Luminescent Cell Viability Assay 96 (Promega, Madison, Wis.) 96 hours after treatment. Relative cell viability was determined as percentage of untreated control. IC50 was calculated by GraphPad Prism 5 software and expressed as concentration (nM) of total Ab.
On the technique in general: In ATP-based viability assays light output follows the ATP content of the culture.

For assay [2], the system named is cynomolgus monkey Trop-2-hFc. Kind of assay: Biacore SPR affinity of chimeric and humanized 7E6 Fab, cynomolgus Trop-2. The settings on record: recombinant Fab fragments injected over captured cynomolgus monkey Trop-2-hFc. Type of assay: binding. The text has this: (§1) The human Trop-2-hFc or cynomolgus monkey Trop-2-hFc proteins were captured on the CM5 EDA chip 37 sensor surface coupled with anti-human Fc.
A general note: Surface plasmon resonance follows binding to a sensor surface in real time, without labels.

The subject of a further assay is SW620 (Trop-2 −) cells. As to the kind of experiment: Flow cytometry binding, SW620 cells. Type of assay: cell-based. The settings on record: 1 ug antibody. As to the method: For A431 cell staining, 200,000 cells were incubated with 0.5 ug antibody in 100 uL binding buffer (PBS (Phosphate Buffered Saline)+0.5% BSA (Bovine Serum Albumin)), followed by incubation with Dylight488-conjugated goat anti-human (Fab′)2-specific secondary antibody from Jackson immunoresearch Laboratories (West Grove, Pa.). For Colo205 and SW620 cells, 300,000 cells were used with 1 ug of primary antibody, followed by AlexaFluor 647 anti-human (Fab′)2-specific secondary antibody from Jackson immunoresearch Laboratories (West Grove, Pa.).
Similar to Example 7a), binding of chimeric mouse and humanized anti-Trop-2 6G11 antibodies (expressed in human IgG1 subtype) were assessed on Trop-2 expressing (A431 and Colo205) and non-expressing (SW620) cells by flow cytometry. 300,000 cells were used with 1 ug of primary antibody, followed by AlexaFluor 647 anti-human (Fab′)2-specific secondary antibody.

A further assay has as its target T1, human Trop2-ECD (Homo sapiens, UniProt P09758).
T1 sequence (P09758 27-274 limits assumed): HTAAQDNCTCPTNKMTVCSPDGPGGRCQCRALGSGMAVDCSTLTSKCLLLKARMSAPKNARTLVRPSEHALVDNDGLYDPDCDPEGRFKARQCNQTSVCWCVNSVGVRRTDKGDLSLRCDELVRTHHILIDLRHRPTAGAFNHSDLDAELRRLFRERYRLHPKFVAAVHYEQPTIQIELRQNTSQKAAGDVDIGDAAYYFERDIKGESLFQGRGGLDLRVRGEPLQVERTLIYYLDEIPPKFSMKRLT
Kind of assay: Proteon XPR36 SPR of Fab/human Trop2-ECD interactions. Type of assay: binding. To be noted: amine-coupled Fab; monovalent human Trop2-ECD 6, 30 and 150 nM; 25° C., pH 7.4. As to the method: Analysis of Fab/human Trop2-ECD (Extracellular Domain) interactions was performed using a Bio-Rad Proteon XPR36 Surface Plasmon Resonance (SPR) biosensor (Bio-Rad, Hercules, Calif.) equipped with a GLC sensor chip. The assay temperature was 25° C., and the assay buffer was 10 mM Sodium Phosphate, 150 mM NaCl, 0.05% Tween-20, pH 7.4. An array of amine-coupled Fabs was prepared using the methodology described in Abdiche et al. (Anal. Biochem., 411: 139-151 (2011)). In each analysis cycle, monovalent human Trop2-ECD antigen was flowed at 30 μL/min over the immobilized Fabs for 3 minutes followed by a buffer wash for 15 minutes to monitor dissociation of the Fab/Trop2 complex. The sensor surface was regenerated between analysis cycles, using three 18-second injections of a 2:1 mixture (by volume) of Pierce IgG Elution buffer:4 M NaCl (Pierce, Rockford, Ill.). Binding and regeneration cycles were repeated at human Trop2-ECD concentrations of 6, 30 and 150 nM. The resulting data were fit to a 1:1 Langmuir binding model using the Proteon evaluation software.

Another assay addresses T2, human Trop-2-hFc (Homo sapiens, UniProt P09758).
T2 construct: Monomeric Trop-2 extracellular domain prepared from papain digestion of Trop-2-Fc fusion protein
T2 sequence (P09758 27-274 limits assumed): T1 sequence (P09758 27-274 limits assumed)
Kind of assay: Biacore SPR affinity of chimeric and humanized 7E6 Fab, human Trop-2. Type of assay: binding. To be noted: recombinant Fab fragments injected over captured human Trop-2-hFc.
Text: as §1

In the next assay the target is T3, mouse Trop-2 (Mus musculus, UniProt Q8BGV3).
T3 sequence (Q8BGV3 25-317): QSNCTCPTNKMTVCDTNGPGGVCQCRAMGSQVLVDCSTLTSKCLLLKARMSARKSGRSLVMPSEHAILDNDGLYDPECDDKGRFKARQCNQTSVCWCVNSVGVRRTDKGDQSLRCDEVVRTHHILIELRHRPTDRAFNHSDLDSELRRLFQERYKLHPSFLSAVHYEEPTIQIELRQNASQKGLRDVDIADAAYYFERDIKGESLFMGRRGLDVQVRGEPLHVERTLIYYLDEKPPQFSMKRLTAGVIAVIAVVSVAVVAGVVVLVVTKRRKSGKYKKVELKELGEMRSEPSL
Kind of assay: Binding to mouse Trop-2. To be noted: recombinant mouse IgG2a.

Another assay has as its target T4, huTrop-2 (Homo sapiens, UniProt P09758).
T4 construct: Monomeric Trop-2 extracellular domain prepared from papain digestion of Trop-2-Fc fusion protein; Fc (cleaved yes); made in house
T4 sequence (P09758 27-274 limits assumed): T1 sequence (P09758 27-274 limits assumed)
Kind of assay: Biacore SPR affinity of anti-Trop-2 mouse antibodies. Type of assay: binding. To be noted: mouse IgG captured by anti-mouse IgG; monomeric Trop-2 extracellular domain as analyte. As to the method: The affinities of anti-Trop-2 mouse antibodies generated from hybridomas were measured on a surface plasmon resonance Biacore™ 2000 or 3000 biosensor equipped with a research-grade CM5 sensor chip (Biacore™ AB, Uppsala, Sweden—now GE Healthcare). Anti-mouse IgG was first amine coupled to the CM5 sensor surface. Various anti-Trop-2 mouse IgGs were then captured by anti-mouse IgG. Monomeric Trop-2 extracellular domain prepared from papain digestion of Trop-2-Fc fusion protein was then injected as the analyte at 3 fold dilution series. […]

Another assay addresses T5, human Trop-1 (Homo sapiens, UniProt P16422, M115T).
T5 sequence (P16422 24-314 M115T): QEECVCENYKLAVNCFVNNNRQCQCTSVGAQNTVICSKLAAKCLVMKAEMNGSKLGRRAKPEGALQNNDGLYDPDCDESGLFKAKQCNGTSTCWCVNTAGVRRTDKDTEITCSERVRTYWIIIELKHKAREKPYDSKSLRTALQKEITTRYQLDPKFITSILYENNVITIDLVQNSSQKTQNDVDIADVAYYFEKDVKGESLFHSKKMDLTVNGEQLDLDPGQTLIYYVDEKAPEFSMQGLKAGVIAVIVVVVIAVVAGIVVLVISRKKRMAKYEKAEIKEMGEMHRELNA
Kind of assay: Binding to human Trop-1. The settings on record: recombinant mouse IgG2a.

In assay [3] the test system is human Trop-2 domains swapped with Trop-1 (EpCAM) or mouse Trop-2 equivalent regions. Kind of assay: Domain mapping by domain swapping (Biacore). The settings on record: for Binding to Trop-2 domain hybrid, domain 1: domain 1 replaced; for Binding to Trop-2 domain hybrid, domain 2: domain 2 replaced; for Binding to Trop-2 domain hybrid, domain 3: domain 3 replaced; for Binding to Trop-2 domain hybrid, domain 4: domain 4 replaced. Type of assay: binding. How it is done:
Domain mapping was done by swapping the Trop-2 extracellular domains with either Trop-1 (EpCAM) or mouse Trop-2 equivalent regions. […] These hybrid proteins were expressed as human Fc fusion proteins in 293F cells. Binding of anti-Trop-2 antibodies to these domain hybrids were determined by Biacore. […] Table 5. Definition of different domains of Trop-2 can be found, e.g., in Chong et al., J. Biol. Chem. 276(8):5804-13, 2001.

The next assay has as its system A431 xenograft. As to the kind of experiment: In vivo efficacy of anti-Trop-2 mouse IgGs, A431 xenograft model. Details: species or system nu/nu mice. The settings on record: 20 mg/kg once a week, 3 doses. As to the method:
In vivo efficacy studies of anti-Trop-2 mouse IgGs were performed with target-expressing A431 xenograft model. Two million A431 epidermoid cancer cells were implanted subcutaneously into 5-8 weeks old nu/nu mice until the tumor sizes reached around 100 mm^3. Animals were randomized by tumor sizes and dosing was done through bolus tail vein injection. Anti-Trop-2 antibodies were expressed as recombinant mouse IgG2a antibodies from 293F transient expression. […] Tumor volume was measured twice a week by a caliper device and calculated with the following formula: Tumor volume=(length×width^2)/2. Studies were terminated before tumor volumes reached 2000 mm^3. TGI (% tumor growth inhibition) was determined as [1-tumor sizes (treatment group)/tumor size (control group)]×100.

Consider three molecules from patent US10100114B2, “Antibodies specific for TROP-2 and their uses” (RINAT NEUROSCIENCE CORP., priority 2011, dated 2018).

B1: h7E6SVG-LCQ03/K222R-vc0101: h7E6SVG K222R with light chain LCQ03 tag (SEQ ID NO: 78) conjugated with AcLys-vc-PABC-0101 (conjugate)
VH: QVQLQESGPGLVKPSETLSLTCTVSGGSISSYGVHWIRQPPGKGLEWIGVIWTSGVTDYNSALMGRVTISVDTSKNQFSLKLSSVTAADTAVYYCARDGDYDRYTMDYWGQGTLVTVSS
VL: DIVMTQSPDSLAVSLGERATINCRASKSVSTSGYSYMHWYQQKPGQPPKLLIYLASNLESGVPDRFSGSGSGTDFTLTISSLQAEDVAVYYCQHSRELPYTFGQGTKLEIK
For the molecule B1, in the assay on Colo205 xenograft, the “tumor response, Colo205 xenograft” value is reported as “tumor regression”. Moreover, the IC50 (usually the concentration at which inhibition is half-maximal) in assay [1] is more than 267 nM.

B2: h7E6_SVG: humanized anti-Trop-2 antibody, VL SEQ ID NO: 3, VH SEQ ID NO: 5 (antibody, V domains shown)
VH: B1 VH
VL: B1 VL
On to B2, for which, in [2], the “ka” value was 265000 M⁻¹ s⁻¹ and the “kd” value was 0.00189 s⁻¹. Further, in the assay with SW620 (Trop-2 −) cells (Table 10, 300,000 cells), the “% positive” value is 2.4% and the MFI is listed as 139. In the assay with human Trop2-ECD, the “ka” value was determined as 170000 M⁻¹ s⁻¹ and the “kd” value was 0.00069 s⁻¹. Besides, in the assay with human Trop-2-hFc, the “ka” value is 97600 M⁻¹ s⁻¹ and the “kd” value turned out to be 0.000435 s⁻¹.

B3: 6G11: anti-Trop-2 mouse antibody, VL SEQ ID NO: 8, VH SEQ ID NO: 9; also used as chimeric human IgG1 (antibody, V domains shown)
VH: QVQLQQPGAELVRPGASVKLSCKASGYTFTSYWINWVKQRPGHGLEWIGNIYPSDSYSNYNQKFKDKATLTVDKSSSTAYMQVSSPTSEDSAVYYCTYGSSFDYWGQGTTVTVSS
VL: DILLTQSPAILSVSPGERVSFSCRASQTIGTSIHWYQQRTNGSPRLLIKYASESISGIPSRFSGSGSGTDFTLSINSVESEDIADYYCQQSNSWPFTFGSGTKLEIK
As to B3, in the assay with mouse Trop-2, the “binding to mouse Trop-2” value is given as “do not bind”. Besides, in the assay with huTrop-2, the “ka” value was 270000 M⁻¹ s⁻¹ and the “kd” value stood at 0.0086 s⁻¹. The “binding to human Trop-1” value with human Trop-1 is “do not bind”. Also, in the assay with SW620 (Trop-2 −) cells (Table 11, 300,000 cells), the “% positive” value turned out to be 2.5% and the MFI was determined as 134. Further, the “human Trop-2 domains bound” value in assay [3] (defined by loss or reduction in binding on domain swapping) was “domain 1”. For the same molecule, in assay [3] (domain replacement hTrop1), the “Binding to Trop-2 domain hybrid, domain 1” value was “+”; the “Binding to Trop-2 domain hybrid, domain 2” value is given as “−”; the “Binding to Trop-2 domain hybrid, domain 3” value is listed as “−”; the “Binding to Trop-2 domain hybrid, domain 4” value is “−”. In assay [3] (domain replacement mTrop-2), the “Binding to Trop-2 domain hybrid, domain 1” value is given as “+”; the “Binding to Trop-2 domain hybrid, domain 2” value is on record as “−”; the “Binding to Trop-2 domain hybrid, domain 3” value is listed as “−”; the “Binding to Trop-2 domain hybrid, domain 4” value is “−”. In addition, the “A431 xenograft tumor growth in vivo” value with A431 xenograft was “inhibit A431 xenograft tumor growth”. In the assay on A431 xenograft (Table 7C), the “Mean tumor volume (mm3) on day 27” value was 444.8 mm3 and the “TGI (Tumor growth inhibition)” value worked out at 57%.
